In US20190040375A1:

How the values were obtained:
[1] = biological target: gliadin-Rmep digest (mixed gliadins, 250 ug/ml, incubated with Rmep, 57 ug/ml); experiment: G12 sandwich ELISA; gliadins 250 ug/ml with Rmep 57 ug/ml, 30 min
[2] = biological target: gliadin-subtilisin A digest (mixed gliadins, 250 ug/ml, incubated with subtilisin A, 57 ug/ml); experiment: G12 sandwich ELISA; gliadins 250 ug/ml with subtilisin A 57 ug/ml, 2 h
[3] = biological target: gliadin-subtilisin A digest (mixed gliadins, 250 ug/ml, incubated with subtilisin A, 57 ug/ml); experiment: G12 sandwich ELISA; gliadins 250 ug/ml with subtilisin A 57 ug/ml, t=0 sample
[4] = biological target: gliadin-Rmep digest (mixed gliadins, 250 ug/ml, incubated with Rmep, 57 ug/ml); experiment: G12 sandwich ELISA; gliadins 250 ug/ml with Rmep 57 ug/ml, 2 h
[5] = biological target: gliadin-subtilisin A digest (mixed gliadins, 250 ug/ml, incubated with subtilisin A, 57 ug/ml); experiment: R5 sandwich ELISA; gliadins 250 ug/ml with subtilisin A 57 ug/ml, 15 min
[6] = biological target: gliadin-subtilisin A digest (mixed gliadins, 250 ug/ml, incubated with subtilisin A, 57 ug/ml); experiment: R5 sandwich ELISA; gliadins 250 ug/ml with subtilisin A 57 ug/ml, t=0 sample
[7] = biological target: gliadin-Rmep digest (mixed gliadins, 250 ug/ml, incubated with Rmep, 57 ug/ml); experiment: R5 sandwich ELISA; gliadins 250 ug/ml with Rmep 57 ug/ml, t=0 sample

Row | decrease in antibody binding [1] | degradation of G12 epitopes (ELISA) [2] | degradation of G12 epitopes (ELISA) [3] | decrease in antibody binding [4] | elimination of R5 epitopes (ELISA) [5] | elimination of R5 epitopes (ELISA) [6] | reduction in antibody binding compared to the control [7] | Substance
1 | 65% | 45% | 22% | 85% | – | – | – | G12 monoclonal antibody (AgraQuant ELISA Gluten G12, Romer labs)
2 | – | – | – | – | 100% | 90% | 46% | R5 monoclonal antibody (… Gliadin, R-Biopharm)
